Reference: the supplement of paper PMC10126150
± gives the standard deviation of the averaged measurements.

Tested on: ATP
Assay: switch fluorescence ratio, 500 uM ATP over buffer (Cy3 cluster intensity, sum of 5 cycles each) (fold (ratio)); higher = stronger signal-on switching upon ATP binding; sequences stand for … in TCGTCGGCAGCGTCAGATGTGTATAAGAGACAGTTTTTTTTTTTTTTTTTTTTTTTTT…TC
Conditions: aptamer strand: ATP DNA aptamer (quencher-CACCTGGGGGAGTATTGCGGAGGAAGG + anchor), 100 nM annealed; ATP concentration: 500 uM
How it was run: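 Cy3-labelled switching-strand clusters on a modified Illumina MiSeq flow-cell were annealed to 100 nM quencher-labelled ATP aptamer and imaged first in selection buffer, then after 15 min with 500 uM ATP at 22 °C. NaOH stripping and re-annealing separated each of five buffer/ATP cycles, and clusters outside 100-1000 RFU were excluded. The fluorescence ratio sums target-cycle Cy3 intensity over buffer-cycle Cy3 intensity per cluster and averages it per switch-domain sequence.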
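Further: ATP exposure 15 min at 22 °C before imaging.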

Row | Sequence | switch fluorescence ratio
1 | ACACCTAAAC | 1.065 ± 0.0096
2 | GTTATTTGTT | 1.068 ± 0.0071
3 | ATTTCTGTTT | 1 ± 0.015
4 | GTGGGGCGCG | 1.02 ± 0.038
5 | GGGTTTAGTG | 0.962 ± 0.014
6 | TAGTCGCGTC | 1.004 ± 0.0066
7 | GCCGGTCGGG | 0.985 ± 0.013
8 | CCGGGTGACC | 1.143 ± 0.0068
9 | ACTGGGGGGC | 1.05 ± 0.016
10 | CGGTTGGTTT | 1.02 ± 0.017
11 | TTGATGCTAT | 1.32 ± 0.43
12 | TTTTTCTTCG | 1.21 ± 0.099
13 | AAAAGACGGG | 1.03 ± 0.022
14 | AAAGTGTTGG | 1.02 ± 0.022
15 | CAATGGTTCA | 1.01 ± 0.013
16 | CGTAGCGGGG | 1.11 ± 0.022
17 | GTTCCTTAGG | 1.01 ± 0.026
18 | TTGATGAACA | 1 ± 0.024
19 | GGATTTGTGA | 1.02 ± 0.022
20 | ATGAGGTGCT | 1.02 ± 0.032
21 | GGTGGAATCA | 0.9816 ± 0.0017
22 | TACTTTGTC | 1.03 ± 0.021
23 | TTCTGTTAAC | 1.01 ± 0.025
24 | AACAACTCCA | 1.015 ± 0.0036
25 | AATACGTATA | 1.1 ± 0.068

Row | Sequence | switch fluorescence ratio
26 | TGGGTGTCAC | 0.9868 ± 0.005
27 | TGGTGGGAGG | 1 ± 0.015
28 | TTCGGGCGTG | 0.994 ± 0.024
29 | AGAGAGGTTT | 0.986 ± 0.039
30 | AAGTTACCTG | 1.087 ± 0.0019
31 | TGATGTAACG | 1.012 ± 0.0082
32 | TAGAAGCCTG | 1.03 ± 0.053
33 | GAATGACCGT | 1.01 ± 0.024
34 | GATTAAAATT | 0.951 ± 0.064
35 | TGGGTCAGGT | 0.9994 ± 0.0084
36 | GGTGGAGGGT | 0.9938 ± 0.0025
37 | ACGGGTAATC | 1.071 ± 0.0095
38 | TTGTTGGAAT | 1 ± 0.019
39 | TTTAAAAGGG | 1 ± 0.027
40 | CCTGGGCCGC | 1.65 ± 0.081
41 | TAATACGAGT | 1.02 ± 0.014
42 | GGTCTTTTGT | 0.998 ± 0.042
43 | GAGATATGAG | 1.02 ± 0.024
44 | ATTAGGTGTT | 1.03 ± 0.066
45 | CTTAACAGCG | 1.01 ± 0.02
46 | GAAGAGGAGG | 1.04 ± 0.011
47 | TTGATAGTCG | 0.969 ± 0.024
48 | CGGTTTTGTG | 0.962 ± 0.031
49 | CGAAGGGTTA | 0.971 ± 0.027
50 | AAAGGGGTTG | 1.01 ± 0.072

Row | Sequence | switch fluorescence ratio
51 | AGTTGGTGG | 1.02 ± 0.024
52 | GTAATTTGGT | 0.9904 ± 0.0032
53 | TTGGTGCTTG | 1 ± 0.041
54 | AATCGGTTAG | 1 ± 0.03
55 | AAGAATGTGT | 0.978 ± 0.056
56 | CGAAAAAAAT | 1.03 ± 0.035
57 | GGGATTTGCT | 0.963 ± 0.022
58 | TTGGTTTAAG | 1 ± 0.027
59 | GGGCTAGACG | 0.997 ± 0.085
60 | TTGATTATTA | 1.02 ± 0.045
61 | CGTATGATAG | 1.015 ± 0.0047
62 | CACTTTGGTT | 1.02 ± 0.011
63 | GGGATGAGGT | 1 ± 0.033
64 | TTTTGGTCCG | 1.034 ± 0.0074
65 | GAGGGGAGAC | 1.02 ± 0.048
66 | TAGTAGTTGC | 1.032 ± 0.0059
67 | TAGCTGGAGG | 0.998 ± 0.035
68 | TCGGAGTCTG | 1.04 ± 0.056
69 | ATGTTCTCAA | 0.998 ± 0.01
70 | ATCGTCGGGA | 0.977 ± 0.02
71 | GTGGGTAGTT | 0.99 ± 0.076
72 | AATGATCCAG | 0.983 ± 0.032
73 | AGACTGTGGC | 0.991 ± 0.0061
74 | GGTGGTCGGG | 0.982 ± 0.0053
75 | CCATATCGTG | 0.988 ± 0.026

Row | Sequence | switch fluorescence ratio
76 | ACCCTGTTGC | 1.12 ± 0.072
77 | TACGGCTATC | 1.16 ± 0.047
78 | TTAGGGGGT | 0.976 ± 0.059
79 | GAGAGGGGCA | 0.999 ± 0.018
80 | CGTGTTAGGG | 1.0062 ± 0.00077
81 | TTTGTTAGA | 0.988 ± 0.012
82 | GCATCGTAGA | 1.07 ± 0.015
83 | GGCTTGGGTG | 1.08 ± 0.032
84 | GGGGCTCATT | 0.983 ± 0.021
85 | AAAGTCGCGC | 1.01 ± 0.018
86 | ATAGGATAGT | 0.976 ± 0.015
87 | CATTAATTTT | 0.968 ± 0.044
88 | CGGGCGGTGG | 0.9829 ± 0.0069
89 | TATAGGGCAT | 1.01 ± 0.032
90 | TTAGGGCATT | 1.11 ± 0.2
91 | TCTTTGGGAC | 0.994 ± 0.028
92 | AGTGAGAGGA | 0.9804 ± 0.007
93 | GAATATGCCG | 0.972 ± 0.019
94 | TCTTTTGGGG | 1.03 ± 0.024
95 | CAGCACGATA | 1.1615 ± 0.00014
96 | ATAAGAAACG | 0.946 ± 0.064
97 | GTTGTAAGAT | 0.981 ± 0.028
98 | CCTAGAGAGG | 1.031 ± 0.006
99 | CAACATTTTC | 1.03 ± 0.054
100 | GATCGCGTGG | 0.968 ± 0.012

Row | Sequence | switch fluorescence ratio
101 | CGTTATCGGA | 1 ± 0.041
102 | CGTGGCAGGG | 0.984 ± 0.033
103 | CCACCAATTT | 1.8 ± 1.2
104 | GCAAAAAAAG | 0.96 ± 0.077
105 | GAGATTTTGT | 0.998 ± 0.036
106 | CGTGGGGATC | 1.06 ± 0.022
107 | CGGAGACGGT | 0.9958 ± 0.0078
108 | TCATAGACGG | 0.987 ± 0.021
109 | TATCAAATTA | 1.03 ± 0.011
110 | TAACTGGGTT | 1.02 ± 0.036
111 | ATGCGACGCT | 1.091 ± 0.0038
112 | ATCCAAGTAA | 1.04 ± 0.021
113 | CAGATCAAGT | 1.016 ± 0.0034
114 | TTCGAATTAG | 2.28 ± 1.7
115 | GCTTTATCGG | 0.965 ± 0.025
116 | CTAGGCTTTT | 1.02 ± 0.079
117 | GGGCCTTGGG | 1.03 ± 0.049
118 | TTAAGAGACG | 1.06 ± 0.07
119 | TATAGGATT | 0.986 ± 0.015
120 | GGTGGGTATA | 1 ± 0.037
121 | GCTTTAAAAT | 1.004 ± 0.0088
122 | TGTGTAAGAC | 1.16 ± 0.022
123 | GGGGGTCACA | 0.989 ± 0.029
124 | GCGGCGTCAA | 1.064 ± 0.0067
125 | TACACGGTCA | 1.047 ± 0.0054

Row | Sequence | switch fluorescence ratio
126 | TGGTCCATGG | 1.008 ± 0.007
127 | GGGCTAAAAG | 0.97428 ± 3.4e-05
128 | AGTGGGATTT | 0.993 ± 0.039
129 | GAAGGTATTG | 0.977 ± 0.013
130 | CTCGCTGCGT | 1.024 ± 0.0082
131 | CCGAATATGA | 1.55 ± 0.079
132 | GCATGAGCTG | 0.981 ± 0.014
133 | TCAATCTTCT | 1.032 ± 0.0095
134 | TTTCACGGTA | 1.15 ± 0.11
135 | TTTTATGTCA | 1.03 ± 0.051
136 | TAGGGAGAGT | 1.01 ± 0.022
137 | GGGATTTTCG | 0.98 ± 0.023
138 | GGGGTGTCTT | 0.992 ± 0.031
139 | TAAGGATTGT | 1.032 ± 0.0063
140 | TGGTTACGGG | 0.993 ± 0.012
141 | AAGTAAGGGC | 1.02 ± 0.031
142 | TTTGGGGTTT | 1.07 ± 0.24
143 | ATAGGGCAGC | 1.03 ± 0.04
144 | ACTCTGGGGG | 1.07 ± 0.092
145 | TCGGACGTAC | 1.98 ± 0.16
146 | AAAGGGGTAT | 1.03 ± 0.027
147 | ATGCGGGGTT | 1.02 ± 0.05
148 | TAGAAGGGGC | 0.989 ± 0.067
149 | CGATGCTGGT | 1.02 ± 0.053
150 | GGGGATACTG | 1.31 ± 0.33

Row | Sequence | switch fluorescence ratio
151 | TTGTTGGAGG | 0.982 ± 0.025
152 | AGCTCATCGC | 1.05 ± 0.023
153 | TACGGGGTGC | 1.07 ± 0.095
154 | ATTTTGAGGA | 1.02 ± 0.015
155 | GGAGCTTTCA | 1.05 ± 0.088
156 | TGTACGGGGT | 1.01 ± 0.021
157 | TGTTTTGGGA | 0.997 ± 0.021
158 | TCGGAAGGAC | 1.141 ± 0.011
159 | GACTTTGAAT | 1.014 ± 0.0089
160 | GCGGGAAACT | 1.05 ± 0.032
161 | GCATATCTAG | 1.03 ± 0.041
162 | GAGCTCCAGA | 1.0093 ± 0.00081
163 | GGGTGAATGT | 0.993 ± 0.041
164 | ACGCCCACTA | 1.38 ± 0.1
165 | TCGAGAATGT | 0.984 ± 0.014
166 | CCTTGAAGGT | 0.984 ± 0.0091
167 | TTCGTTTGCA | 1.38 ± 0.64
168 | ATAGTAGTGG | 1.003 ± 0.0081
169 | GTGGGACAGG | 1.01 ± 0.015
170 | GGGTAACGGA | 1.03 ± 0.04
171 | CCTTTGGATA | 1.13 ± 0.16
172 | ATGTACTTGG | 1.02 ± 0.013
173 | AAGCAGGCGG | 1.02 ± 0.021
174 | TCGGAATTTT | 1.03 ± 0.026
175 | TATTGGAGTT | 1.04 ± 0.015

Row | Sequence | switch fluorescence ratio
176 | GTTGGGAGGC | 1.064 ± 0.0014
177 | GAGATTGCGT | 1.01 ± 0.028
178 | GAGTAAGTGC | 0.972 ± 0.053
179 | TGGGGTACAC | 0.993 ± 0.024
180 | ACCGCACGGA | 1.55 ± 0.29
181 | TTTTTTTACT | 1.02 ± 0.029
182 | GATTGCAGTA | 0.983 ± 0.036
183 | TTGACGCGTG | 0.982 ± 0.023
184 | TTTCCATTAA | 1 ± 0.044
185 | AAAGGGGGCA | 0.99 ± 0.031
186 | GGGGGTTGAT | 0.991 ± 0.069
187 | AGGAATTGGA | 1.01 ± 0.1
188 | AAAAATATTT | 1.61 ± 0.86
189 | AAATTGGGCT | 1.03 ± 0.026
190 | TTAATATTTG | 1.01 ± 0.041
191 | TGCTTAGTC | 1.01 ± 0.022
192 | TGATTCAAAG | 1.01 ± 0.035
193 | GGGTTGTTAC | 1.14 ± 0.069
194 | TGTGGTTTTG | 0.9586 ± 0.0042
195 | AGGGTAGTTG | 0.994 ± 0.019
196 | GAGGTGCCTA | 0.991 ± 0.02
197 | GGGGGATCGA | 1.04 ± 0.086
198 | GGGTTTGGGT | 1.01 ± 0.053
199 | TATGGTCATA | 0.999 ± 0.032
200 | ACTTACGGGC | 1.513 ± 0.0058
